Test results from paper PMC3990709, “Structural Differences Explain Diverse Functions of Plasmodium Actins” (PLoS Pathogens, 2014).
Where “and” joins values, the source holds several entries; their conditions need not be identical. Equal values may be shown once.

Molecular target: the molecule itself
Assay: native gel or EMSA; native PAGE, ATP form, 0.1 mM CaCl2 and 0.5 mM ATP in the running buffer, 277 K; samples 6.7 µM, immediately and 48 h after purification (stored on ice)

B1: Plasmodium falciparum actin I (natural protein)
chain: not shown
notes: actin I of Plasmodium falciparum, PlasmoDB PF3D7_1246200; also called PfActI; Plasmodium actin I; source: Sf21 cells at 300 K, purified (size exclusion chromatography), alone or as a complex with G1
- stoichiometry N: 4 and 12
